These results are taken from patent US9717715B2.

Assay [1] has as its target c-Met on human cancer cells (human) (UniProt P08581).
The target is the same in assay [2]. The source holds these as a separate data set.

In assay [1], antibody 5D5 (ATCC Cat. # HB11895) displayed an Akt phosphorylation (%) in Caki-1 cells, 5 ug/ml, 30 min of 100%. Besides, the relative cell viability (%) of MKN45 cells, 72 h in assay [2] is 53%.
